Assays:
[1] = molecular target: T1, human TNFR2 on the cell membrane (human, UniProt P20333 23-461); assay: flow cytometry on TNFR2-CHO cells
T1 construct: whole, on cells; One molecule for all cell formats; also called TNFR2-CHO cells; CHO-TNFR2
T1 sequence (looked up): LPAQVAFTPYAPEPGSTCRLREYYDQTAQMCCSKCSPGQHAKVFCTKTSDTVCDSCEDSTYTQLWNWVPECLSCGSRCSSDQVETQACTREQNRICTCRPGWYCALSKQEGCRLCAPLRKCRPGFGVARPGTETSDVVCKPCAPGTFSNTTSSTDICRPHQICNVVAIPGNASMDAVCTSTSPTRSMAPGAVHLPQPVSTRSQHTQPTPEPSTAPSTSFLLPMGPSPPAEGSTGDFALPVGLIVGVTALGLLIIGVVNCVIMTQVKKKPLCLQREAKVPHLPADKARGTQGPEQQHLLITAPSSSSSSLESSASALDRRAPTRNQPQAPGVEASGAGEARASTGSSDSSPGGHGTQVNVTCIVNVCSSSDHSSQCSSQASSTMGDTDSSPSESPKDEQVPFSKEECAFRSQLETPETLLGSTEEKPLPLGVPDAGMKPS
Protocol: (§1) Purified anti-human TNFR2 mouse monoclonal antibodies were co-incubated with TNFR2 overexpressing CHO cell lines (obtained routinely as follows: PCDNA3.4-TNFR2 was transfected into CHO cells, and stable high expression TNFR2 cell lines were obtained through drug screening and monoclonal sorting), and then stained. The antibody binding intensity was analyzed by flow cytometry. The specific steps are as follows: TNFR2-CHO cells were counted, centrifuged, resuspended, then added to a 96-deep well plate, and the supernatant was discarded. The anti-TNFR2 antibodies to be tested were gradient diluted, added to the 96-deep well plate. […] The samples were detected using Beckman CytoFLEX.

[2] = molecular target: T2, recombinant mouse TNFR2 (mTNFR2) (Sino Biological, 50128-M08H) (mouse, UniProt P25119 23-258); assay: ELISA, plate coated with recombinant mouse TNFR2
T2 sequence (looked up): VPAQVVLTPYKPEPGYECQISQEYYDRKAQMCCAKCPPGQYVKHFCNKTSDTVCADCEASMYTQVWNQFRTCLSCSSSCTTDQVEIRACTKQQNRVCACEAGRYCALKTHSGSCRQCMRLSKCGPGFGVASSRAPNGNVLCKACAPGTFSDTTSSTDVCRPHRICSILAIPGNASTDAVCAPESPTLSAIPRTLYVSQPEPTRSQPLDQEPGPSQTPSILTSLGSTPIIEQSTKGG
Protocol: (§2) After TMB development, the detection was performed using microplate reader: dual wavelength 450 nm/655 nm detection, and results were calculated by OD₄₅₀-OD₆₅₅.
(§3) Using the same method as above, the TNFR2 antigens of cynomolgus monkey and mouse (Sino Biological, 90102-C021 and 50128-M08H) were coated separately. The anti-human TNFR2 mouse monoclonal antibodies to be tested were gradient diluted, then added with the anti-mouse Fab segment secondary antibody (Jackson Immuno Research, 515-035-072), and TMB development was performed. ELISA was used to detect the binding of 8 strains of mouse monoclonal antibodies to recombinant mouse TNFR2 (mTNFR2) and cynomolgus monkey TNFR2 (Cyno. TNFR2).

[3] = molecular target: T3, recombinant cynomolgus monkey TNFR2 (Cyno. TNFR2) (Sino Biological, 90102-C021) (cynomolgus monkey, UniProt A0A2K5VET2 132-366); assay: ELISA, coated cynomolgus TNFR2
T3 sequence: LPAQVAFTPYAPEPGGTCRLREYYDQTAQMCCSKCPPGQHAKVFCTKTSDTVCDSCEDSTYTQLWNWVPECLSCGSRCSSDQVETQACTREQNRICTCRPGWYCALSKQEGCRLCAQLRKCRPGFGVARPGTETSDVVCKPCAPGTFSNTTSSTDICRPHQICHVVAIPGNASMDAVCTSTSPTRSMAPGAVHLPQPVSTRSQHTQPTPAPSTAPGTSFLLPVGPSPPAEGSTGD
Protocol: as §2, §3

[4] = molecular target: T3, recombinant cynomolgus monkey TNFR2 …; assay: ELISA, plate coated with recombinant cynomolgus monkey TNFR2
Protocol: as §2, §3

[5] = molecular target: T4, recombinant human TNFR2 antigen (Kangdai, batch number A100114U) (human, UniProt P20333 23-257); assay: ELISA, plate coated with recombinant human TNFR2 antigen
T4 construct: also called hTNFR2; TNFR2-FC (Shanghai Saijin Biopharmaceutical Co., Ltd., Qiangke, catalog number A100114U); not shown: Fc part of the bought TNFR2-FC
T4 sequence (looked up): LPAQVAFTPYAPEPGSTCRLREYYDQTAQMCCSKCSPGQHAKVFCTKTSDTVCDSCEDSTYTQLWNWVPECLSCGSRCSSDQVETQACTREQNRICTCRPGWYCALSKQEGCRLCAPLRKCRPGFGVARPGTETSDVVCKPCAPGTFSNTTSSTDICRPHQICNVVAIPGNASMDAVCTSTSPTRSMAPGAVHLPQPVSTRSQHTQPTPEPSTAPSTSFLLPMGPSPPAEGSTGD
Protocol: as §2

[6] = molecular target: T1, human TNFR2 on the cell membrane; assay: flow cytometry, TNFR2-CHO cells
Protocol: as §1

[7] = molecular target: T4, recombinant human TNFR2 antigen …; assay: ELISA, coated recombinant human TNFR2
Protocol: as §2

EC50 [1]: 38.3 nM
binding result [2]: no binding
EC50 [3]: 0.0371 µg/mL
EC50 [4]: 0.248 nM
EC50 [5]: 0.146 nM
EC50 [6]: 5.71 µg/mL
EC50 [7]: 0.0218 µg/mL
B1: anti-human TNFR2 mouse monoclonal antibody 16D2 (antibody, V domains shown)
VH: EVQLQQSEPELVKPGASVKIPCKASGYTFTDYNMDWVKQSHGKSLEWIGDINPNNGVTIYNQKFKGKATLTVDKSSSTAYMELRSLTSEDTAVYYCVILEYFDYWGQGTTLTVSS
VL: DIVMTQSTSSMSVSLGDTVSITCHASQGISSNIGWLQQKPGKSFKGLIYHGTKLEDGVPSRFSGSGSGADYSLTISSLESEDFADYYCVQYAQFPRTFGGGTKLEIK
